# Results reported in publication PMC12730240 (Biosensors, 2025).
# B1: nanobody G1 (NG1), biotinylated (VHH)
# VHH: QVQLVESGGGLVQPGESLRLSCVASASTFSTSLMGWVRQAPGKGLESVAEVRTTGGTFYAKSVAGRFTISRDNAKNTLYLQMNSLKAEDTGVYYCTAGAGPIATRYRGQGTQVTVSS
# notes: also called B2; source: E. coli SHuffle T7, purified (Ni-NTA IMAC)
# Biological target: T1, Shiga toxin 2 (E. coli (Shiga toxin-producing, STEC))
# T1 construct: source: similarly expressed and purified as previously described [29]; copies: + 5
# Test: pull-down
# Details: both partners purified
binder,measurement,value
B1,binding result,binds
